Our source for the abundance fitness values is the Human Domainome abundance scans (Beltran et al. 2025).

± gives the uncertainty stated by the source.

To fix the notation:
B1: POU domain, class 4, transcription factor 2, residues 256 to 327; numbered along this chain, Q12837 (parent)
chain: RDLEAFAERFKQRRIKLGVTQADVGSALANLKIPGVGSLSQSTICRFESLTLSHNNMIALKPILQAWLEEAE

The variants in the series derive from B1. Kind of series: abundance fitness (aPCA) (normalised: wild type 0, dead -1); higher = more abundant; growth selection in yeast, the domain comes from the species named. The note with it: Homo sapiens.
Regarding RDLEAFAERFKQRRIKLGVTQADVGSALANLKIPGVGSLSQSTICQFESLTLSHNNMIALKPILQAWLEEAE [R46Q], the abundance fitness worked out at 0.122 ± 0.095.
Then RDLEAFAERFKQRRIKLGVTQADVGSALANLKIPGVGSLSQSTICLFESLTLSHNNMIALKPILQAWLEEAE [R46L], with -0.22 ± 0.062.
Under RDLEAFAERFKQRRIKLGVTQADVGSALANLKIPGVGSLSQSTICTFESLTLSHNNMIALKPILQAWLEEAE [R46T] stands -0.531 ± 0.19.
Under RDLEAFAERFKQRRIKLGVTQADVGSALANLKIPGVGSLSQSTICWFESLTLSHNNMIALKPILQAWLEEAE [R46W] stands -0.567 ± 0.16; under RDLEAFAERFKQRRIKLGVTQADVGSALANLKIPGVGSLSQSTICHFESLTLSHNNMIALKPILQAWLEEAE [R46H], -0.118 ± 0.2.
With RDLEAFAERFKQRRIKLGVTQADVGSALANLKIPGVGSLSQSTICMFESLTLSHNNMIALKPILQAWLEEAE [R46M], the abundance fitness was -0.12 ± 0.11.
Then RDLEAFAERFKQRRIKLGVTQADVGSALANLKIPGVGSLSQSTICPFESLTLSHNNMIALKPILQAWLEEAE [R46P], with -1.01 ± 0.13; and RDLEAFAERFKQRRIKLGVTQADVGSALANLKIPGVGSLSQSTICCFESLTLSHNNMIALKPILQAWLEEAE [R46C], with -0.059 ± 0.082.
Then RDLEAFAERFKQRRIKLGVTQADVGSALANLKIPGVGSLSQSTICSFESLTLSHNNMIALKPILQAWLEEAE [R46S], with 0.076 ± 0.045.
Under RDLEAFAERFKQRRIKLGVTQADVGSALANLKIPGVGSLSQSTICVFESLTLSHNNMIALKPILQAWLEEAE [R46V] stands -0.899 ± 0.22.
Take RDLEAFAERFKQRRIKLGVTQADVGSALANLKIPGVGSLSQSTICKFESLTLSHNNMIALKPILQAWLEEAE [R46K]: the abundance fitness turned out to be 0.033 ± 0.12.
Then RDLEAFAERFKQRRIKLGVTQADVGSALANLKIPGVGSLSQSTICDFESLTLSHNNMIALKPILQAWLEEAE [R46D], with 0.094 ± 0.14; and RDLEAFAERFKQRRIKLGVTQADVGSALANLKIPGVGSLSQSTICAFESLTLSHNNMIALKPILQAWLEEAE [R46A], with -0.027 ± 0.11; and RDLEAFAERFKQRRIKLGVTQADVGSALANLKIPGVGSLSQSQICRFESLTLSHNNMIALKPILQAWLEEAE [T43Q], with -0.452 ± 0.17.
Under RDLEAFAERFKQRRIKLGVTQADVGSALANLKIPGVGSLSQSFICRFESLTLSHNNMIALKPILQAWLEEAE [T43F] stands -0.289 ± 0.21; under RDLEAFAERFKQRRIKLGVTQADVGSALANLKIPGVGSLSQSLICRFESLTLSHNNMIALKPILQAWLEEAE [T43L], -0.053 ± 0.051; under RDLEAFAERFKQRRIKLGVTQADVGSALANLKIPGVGSLSQSVICRFESLTLSHNNMIALKPILQAWLEEAE [T43V], -0.01 ± 0.064.
Then RDLEAFAERFKQRRIKLGVTQADVGSALANLKIPGVGSLSQSSICRFESLTLSHNNMIALKPILQAWLEEAE [T43S], with -0.353 ± 0.078.
Consider RDLEAFAERFKQRRIKLGVTQADVGSALANLKIPGVGSLSQSEICRFESLTLSHNNMIALKPILQAWLEEAE [T43E], for which the abundance fitness is -0.574 ± 0.3.
Then RDLEAFAERFKQRRIKLGVTQADVGSALANLKIPGVGSLSQSWICRFESLTLSHNNMIALKPILQAWLEEAE [T43W], with -0.282 ± 0.092; and RDLEAFAERFKQRRIKLGVTQADVGSALANLKIPGVGSLSQSMICRFESLTLSHNNMIALKPILQAWLEEAE [T43M], with -0.068 ± 0.16.
Under RDLEAFAERFKQRRIKLGVTQADVGSALANLKIPGVGSLSQSRICRFESLTLSHNNMIALKPILQAWLEEAE [T43R] stands -0.632 ± 0.072.
Then RDLEAFAERFKQRRIKLGVTQADVGSALANLKIPGVGSLSQSGICRFESLTLSHNNMIALKPILQAWLEEAE [T43G], with -0.792 ± 0.1.
As to RDLEAFAERFKQRRIKLGVTQADVGSALANLKIPGVGSLSQSHICRFESLTLSHNNMIALKPILQAWLEEAE [T43H], the abundance fitness was -0.274 ± 0.17.
Then RDLEAFAERFKQRRIKLGVTQADVGSALANLKIPGVGSLSQSIICRFESLTLSHNNMIALKPILQAWLEEAE [T43I], with 0.207 ± 0.23; and RDLEAFAERFKQRRIKLGVTQADVGSALANLKIPGVGSLSQSKICRFESLTLSHNNMIALKPILQAWLEEAE [T43K], with -0.624 ± 0.17; and RDLEAFAERFKQRRIKLGVTQADVGSALANLKIPGVGSLSQSTITRFESLTLSHNNMIALKPILQAWLEEAE [C45T], with -0.161 ± 0.11.
Then RDLEAFAERFKQRRIKLGVTQADVGSALANLKIPGVGSLSQSTIMRFESLTLSHNNMIALKPILQAWLEEAE [C45M], with -0.251 ± 0.33.
For RDLEAFAERFKQRRIKLGVTQADVGSALANLKIPGVGSLSQSTIDRFESLTLSHNNMIALKPILQAWLEEAE [C45D], the abundance fitness was -0.135 ± 0.11.
For RDLEAFAERFKQRRIKLGVTQADVGSALANLKIPGVGSLSQSTIKRFESLTLSHNNMIALKPILQAWLEEAE [C45K], the abundance fitness was -0.098 ± 0.14.
For the variant RDLEAFAERFKQRRIKLGVTQADVGSALANLKIPGVGSLSQSTIQRFESLTLSHNNMIALKPILQAWLEEAE [C45Q], the abundance fitness was found to be 0.119 ± 0.11.
Under RDLEAFAERFKQRRIKLGVTQADVGSALANLKIPGVGSLSQSTIARFESLTLSHNNMIALKPILQAWLEEAE [C45A] stands 0.036 ± 0.071; under RDLEAFAERFKQRRIKLGVTQADVGSALANLKIPGVGSLSQSTIRRFESLTLSHNNMIALKPILQAWLEEAE [C45R], -0.008 ± 0.059.
Regarding RDLEAFAERFKQRRIKLGVTQADVGSALANLKIPGVGSLSQSTIVRFESLTLSHNNMIALKPILQAWLEEAE [C45V], the abundance fitness was -0.004 ± 0.084.
Under RDLEAFAERFKQRRIKLGVTQADVGSALANLKIPGVGSLSQSTIYRFESLTLSHNNMIALKPILQAWLEEAE [C45Y] stands 0.26 ± 0.39; under RDLEAFAERFKQRRIKLGVTQADVGSALANLKIPGVGSLSQSTIIRFESLTLSHNNMIALKPILQAWLEEAE [C45I], -0.261 ± 0.15; under RDLEAFAERFKQRRIKLGVTQADVGSALANLKIPGVGSLSQSTINRFESLTLSHNNMIALKPILQAWLEEAE [C45N], 0.091 ± 0.13.
